# Reference: patent US20140213531A1 (POLYPHOR, published 2014)
# T1: CathepsinG, from human neutrophils (human, UniProt P08311 21-244)
# T1 sequence (looked up): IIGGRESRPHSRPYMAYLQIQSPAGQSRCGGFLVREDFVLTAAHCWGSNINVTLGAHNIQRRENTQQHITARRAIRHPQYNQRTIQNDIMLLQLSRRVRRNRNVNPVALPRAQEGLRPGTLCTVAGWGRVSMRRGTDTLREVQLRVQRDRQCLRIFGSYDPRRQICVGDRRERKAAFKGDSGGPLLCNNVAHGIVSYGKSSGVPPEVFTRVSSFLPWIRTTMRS
# T2: Chymase, from human skin (human, UniProt P23946 22-247)
# T2 sequence (looked up): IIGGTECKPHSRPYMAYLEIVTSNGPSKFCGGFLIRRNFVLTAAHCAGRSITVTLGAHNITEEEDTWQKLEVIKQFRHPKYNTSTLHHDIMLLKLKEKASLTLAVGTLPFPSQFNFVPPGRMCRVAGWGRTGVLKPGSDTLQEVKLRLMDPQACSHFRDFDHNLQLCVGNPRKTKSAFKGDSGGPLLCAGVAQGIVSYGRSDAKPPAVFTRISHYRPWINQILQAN
# T3: Elastase from human neutrophils (human, UniProt P08246 30-247, limits assumed)
# T3 sequence (looked up): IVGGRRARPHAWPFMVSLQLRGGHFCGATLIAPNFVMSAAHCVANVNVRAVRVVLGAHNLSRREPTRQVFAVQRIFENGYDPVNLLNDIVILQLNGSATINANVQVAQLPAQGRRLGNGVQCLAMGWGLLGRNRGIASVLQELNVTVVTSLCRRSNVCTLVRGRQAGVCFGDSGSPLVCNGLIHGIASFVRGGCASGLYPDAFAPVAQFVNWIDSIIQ
# B1: Example 44 (peptide)
# peptide: XCTKSDPPICY
# HELM: PEPTIDE1{[Nle].C.T.K.S.D.P.P.I.C.Y.[dP].P}$PEPTIDE1,PEPTIDE1,2:R3-10:R3|PEPTIDE1,PEPTIDE1,1:R1-13:R2$$$V2.0
# SMILES: CCCC[C@@H]1NC(=O)[C@@H]2CCCN2C(=O)[C@H]2CCCN2C(=O)[C@H](Cc2ccc(O)cc2)NC(=O)[C@@H]2CSSC[C@H](NC1=O)C(=O)N[C@@H]([C@@H](C)O)C(=O)N[C@@H](CCCCN)C(=O)N[C@@H](CO)C(=O)N[C@@H](CC(=O)O)C(=O)N1CCC[C@H]1C(=O)N1CCC[C@H]1C(=O)N[C@@H]([C@@H](C)CC)C(=O)N2
# B2: Example 40 (peptide)
# peptide: XCTKSDPPICY
# HELM: PEPTIDE1{[O=C([C@@H](N[*:1])C1CCCCC1)[*:2]].C.T.K.S.D.P.P.I.C.Y.[dP].P}$PEPTIDE1,PEPTIDE1,2:R3-10:R3|PEPTIDE1,PEPTIDE1,1:R1-13:R2$$$V2.0
# SMILES: CC[C@H](C)[C@@H]1NC(=O)[C@@H]2CCCN2C(=O)[C@@H]2CCCN2C(=O)[C@H](CC(=O)O)NC(=O)[C@H](CO)NC(=O)[C@H](CCCCN)NC(=O)[C@H]([C@@H](C)O)NC(=O)[C@@H]2CSSC[C@H](NC1=O)C(=O)N[C@@H](Cc1ccc(O)cc1)C(=O)N1CCC[C@@H]1C(=O)N1CCC[C@H]1C(=O)N[C@@H](C1CCCCC1)C(=O)N2
# B3: Example 39 (peptide)
# peptide: XCTKSDPPICD
# HELM: PEPTIDE1{[O=C([C@@H](N[*:1])C1CCCCC1)[*:2]].C.T.K.S.D.P.P.I.C.D.[dP].P}$PEPTIDE1,PEPTIDE1,2:R3-10:R3|PEPTIDE1,PEPTIDE1,1:R1-13:R2$$$V2.0
# SMILES: CC[C@H](C)[C@@H]1NC(=O)[C@@H]2CCCN2C(=O)[C@@H]2CCCN2C(=O)[C@H](CC(=O)O)NC(=O)[C@H](CO)NC(=O)[C@H](CCCCN)NC(=O)[C@H]([C@@H](C)O)NC(=O)[C@@H]2CSSC[C@H](NC1=O)C(=O)N[C@@H](CC(=O)O)C(=O)N1CCC[C@@H]1C(=O)N1CCC[C@H]1C(=O)N[C@@H](C1CCCCC1)C(=O)N2
# B4: Example 38 (peptide)
# peptide: XCTKSDPPICT
# HELM: PEPTIDE1{[O=C([C@@H](N[*:1])C1CCCCC1)[*:2]].C.T.K.S.D.P.P.I.C.T.[dP].P}$PEPTIDE1,PEPTIDE1,2:R3-10:R3|PEPTIDE1,PEPTIDE1,1:R1-13:R2$$$V2.0
# SMILES: CC[C@H](C)[C@@H]1NC(=O)[C@@H]2CCCN2C(=O)[C@@H]2CCCN2C(=O)[C@H](CC(=O)O)NC(=O)[C@H](CO)NC(=O)[C@H](CCCCN)NC(=O)[C@H]([C@@H](C)O)NC(=O)[C@@H]2CSSC[C@H](NC1=O)C(=O)N[C@@H]([C@@H](C)O)C(=O)N1CCC[C@@H]1C(=O)N1CCC[C@H]1C(=O)N[C@@H](C1CCCCC1)C(=O)N2
# Molecular target: Thrombin, from Human Plasma, high activity (human, UniProt P00734 328-622)
# Experiment: cell-based or functional assay
row,Binder,% inhibition at 100 µM
1,B1,9%
2,B2,1%
3,B3,2%
4,B4,0%

# Molecular target: T1, CathepsinG, from human neutrophils
# Experiment: cell-based or functional assay
row,Binder,IC50
1,B1,31 nmol
2,B2,25 nmol
3,B3,38 nmol
4,B4,31 nmol

# Molecular target: Tryptase, from human lung (human, UniProt Q15661 31-275, limits assumed)
# Experiment: cell-based or functional assay
# Sequence of Tryptase, from human lung (Q15661 31-275 limits assumed): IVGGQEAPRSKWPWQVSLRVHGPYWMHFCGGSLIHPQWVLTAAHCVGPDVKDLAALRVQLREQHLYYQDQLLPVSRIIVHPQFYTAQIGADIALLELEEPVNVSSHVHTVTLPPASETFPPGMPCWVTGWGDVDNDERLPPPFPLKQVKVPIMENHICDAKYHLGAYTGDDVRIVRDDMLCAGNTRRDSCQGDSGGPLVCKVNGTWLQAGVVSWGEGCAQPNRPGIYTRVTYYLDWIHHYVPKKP
row,Binder,% inhibition at 100 µM
1,B1,50%
2,B2,33%
3,B3,34%
4,B4,11%

# Molecular target: Chymotrypsin, from human pancreas (human, UniProt P17538 19-263)
# Experiment: cell-based or functional assay
# Sequence of Chymotrypsin, from human pancreas (P17538 19-263): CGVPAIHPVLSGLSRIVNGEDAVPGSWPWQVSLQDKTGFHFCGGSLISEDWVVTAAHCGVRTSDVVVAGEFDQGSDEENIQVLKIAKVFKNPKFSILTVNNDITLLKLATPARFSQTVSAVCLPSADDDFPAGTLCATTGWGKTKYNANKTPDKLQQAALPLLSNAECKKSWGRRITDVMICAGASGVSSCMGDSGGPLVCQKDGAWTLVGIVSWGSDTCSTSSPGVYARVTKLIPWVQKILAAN
row,Binder,% inhibition at 100 µM
1,B1,24%
2,B2,19%
3,B3,7%
4,B4,4%

# Molecular target: T2, Chymase, from human skin
# Experiment: cell-based or functional assay
row,Binder,% inhibition at 100 µM
1,B1,3%
2,B2,8%
3,B3,0%
4,B4,1%

# Molecular target: T3, Elastase from human neutrophils
# Experiment: cell-based or functional assay
row,Binder,IC50
1,B1,> 10000 nmol
2,B2,> 44900 nmol
3,B3,> 100000 nmol
4,B4,> 100000 nmol

# Molecular target: Coagulation Factor Xa, from human plasma (human, UniProt P00742 41-488, limits assumed)
# Experiment: cell-based or functional assay
# Sequence of Coagulation Factor Xa, from human plasma (P00742 41-488 limits assumed): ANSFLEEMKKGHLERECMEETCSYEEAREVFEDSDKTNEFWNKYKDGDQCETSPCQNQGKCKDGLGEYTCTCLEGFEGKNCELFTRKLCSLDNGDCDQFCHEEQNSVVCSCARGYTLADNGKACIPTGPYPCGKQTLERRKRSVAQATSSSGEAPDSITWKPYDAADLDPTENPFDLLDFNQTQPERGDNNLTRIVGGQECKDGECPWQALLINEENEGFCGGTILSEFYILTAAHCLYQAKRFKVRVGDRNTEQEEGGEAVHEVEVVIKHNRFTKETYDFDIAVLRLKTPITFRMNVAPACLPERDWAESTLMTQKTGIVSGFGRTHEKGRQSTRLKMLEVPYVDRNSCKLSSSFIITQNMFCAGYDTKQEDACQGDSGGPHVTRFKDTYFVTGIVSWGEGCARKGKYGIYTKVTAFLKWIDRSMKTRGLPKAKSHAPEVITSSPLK
row,Binder,% inhibition at 100 µM
1,B1,9%
2,B2,3%
3,B3,0%
4,B4,0%

# Molecular target: Urokinase from human urine (human, UniProt P00749 21-431, limits assumed)
# Experiment: cell-based or functional assay
row,Binder,% inhibition at 100 µM
1,B1,14%
2,B2,10%
3,B3,2%
4,B4,1%

# Molecular target: Trypsin, Iodination grade, from human pancreas (human, UniProt P07477 24-247)
# Experiment: cell-based or functional assay
row,Binder,% inhibition at 100 µM
1,B1,100%
2,B2,94%
3,B3,94%
4,B4,96%
